Data reported in patent publication US12012457 (SYNTHEKINE, dated 2024).

T1: extracellular domain of mouse IL23R (mIL23R ECD) (mouse, UniProt Q8K4B4 24-374)
T1 construct: also called mIL-23 ECD antigen
T1 sequence: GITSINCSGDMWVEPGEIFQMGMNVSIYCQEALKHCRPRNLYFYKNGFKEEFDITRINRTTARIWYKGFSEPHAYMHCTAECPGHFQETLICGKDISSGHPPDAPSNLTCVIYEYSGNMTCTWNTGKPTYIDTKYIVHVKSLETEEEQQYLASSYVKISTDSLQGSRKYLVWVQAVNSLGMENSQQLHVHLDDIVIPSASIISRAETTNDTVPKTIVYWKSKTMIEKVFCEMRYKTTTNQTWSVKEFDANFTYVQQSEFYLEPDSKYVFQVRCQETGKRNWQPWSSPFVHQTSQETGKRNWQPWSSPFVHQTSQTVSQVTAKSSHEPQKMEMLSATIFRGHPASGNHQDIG

T2: extracellular domain of human IL23R (hIL23R ECD) (human, UniProt Q5VWK5 24-355)
T2 construct: also called hIL-23 ECD antigen
T2 sequence: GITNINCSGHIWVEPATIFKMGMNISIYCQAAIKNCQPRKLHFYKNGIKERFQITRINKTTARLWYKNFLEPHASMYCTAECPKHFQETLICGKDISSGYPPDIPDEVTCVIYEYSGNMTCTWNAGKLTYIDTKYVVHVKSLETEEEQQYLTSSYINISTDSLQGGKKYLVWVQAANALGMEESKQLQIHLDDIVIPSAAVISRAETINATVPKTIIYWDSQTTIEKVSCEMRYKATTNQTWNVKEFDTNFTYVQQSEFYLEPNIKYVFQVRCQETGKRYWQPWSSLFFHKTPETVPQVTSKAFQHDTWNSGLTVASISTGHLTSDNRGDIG


Molecular target: T1, extracellular domain of mouse IL23R …
Experiment: periplasmic extract ELISA (PE-ELISA), 96-well plate, colorimetric

Binder | binding result
mIL23R VHH29 (VHH) VHH: QVQLQESGGGLVQPGGSLRLSCAASGFTFSTSAMTWVRQAPGKGLDWVSGIDSGGTTVYADSVKGRFTISKDNAKNTLYLQMNSLKTEDTAVYYCATGLPWGNTWRTRGQGTQVTVSS | binds
mIL23R VHH37 (VHH) VHH: QVQLQESGGGLVQPGGSLRLSCATSGFTFSSGAMTWVRQAPGKGLDWVSGIDSGGTTVYADSVKGRFTISKDNAKNTLYLQMNSLKTEDTAVYYCATGLPWGNTWRTTGQGTQVTVSS | binds
mIL23R VHH35 (VHH) VHH: QVQLQESGGGLVQPGGSLRLACSASGFTFSSSAMTWVRQAPGKGLDWVSGIDSGGTTVYADSVKGRATILKDNAKNTLYLQMNSLKTEDTAVYYCATGLPWGNTWRTRGQGTQVTVSS | binds
mIL23R VHH21 (VHH) VHH: QVQLQESGGGLVQPGGSLRLSCATSGFTFSSSAMTWVRQAPGKGLDWVSGIDSGGTTVYADSVKGRFTISKDNAKNTLYLQMNSLKTEDTAVYYCATGLPWGNTWRTTGQGTQVTVSS | binds
mIL23R VHH38 (VHH) VHH: QVQLQESGGGLVQPGGSLRLSCAASGFTFSTSAMTWVRQAPGKGLDWVSGIDSGGTTVYADSVKGRFTISKDNAKNTLYLQMNSLKTEDTAVYYCATGLPWGNIWRTRGQGTQVTVSS | binds
mIL23R VHH14 (VHH) VHH: QVQLQESGGGLVQPGGSLRLSCAASGFTFRTSAMTWVRQAPGKGLDWVSGIDSGGTTVYADSVKGRFTISRDSAKNTLYLQMNSLKTEDTAVYYCAMGLPWGNTWRTRGQGTQVTVSS | binds
mIL23R VHH20 (VHH) VHH: QVQLQESGGGLVQPGGSLRLSCAASGFTFSSSAMTWVRQAPGKGLDWVSGIDSGGTTVYADSVKGRATILKDNAKNTLYLQMNSLKTEDTAVYYCATGLPWGNTWRTRGQGTQVTVSS | binds
mIL23R VHH32 (VHH) VHH: QVQLQESGGGLVRPGGSLRLSCAASGFTFSRSAMTWVRQAPGKGLDWVSGIDSGGTTVYADSVKGRFTISRDSAKNTLYLQMNSLKTEDTAVYYCAIGLPWGNTWRTRGQGTQVTVSS | binds
mIL23R VHH33 (VHH) VHH: QVQLQESGGGLVQPGGSLRLSCTTSGFTFSSSAMTWVRQAPGKGLDWVSGIDSGGTTVYADSVKGRFTISKDNAKNTLYLQMNSLKTEDTAVYYCATGLPWGNTWRTTGQGTQVTVSS | binds
mIL23R VHH41 (VHH) VHH: QVQLQESGGGLVQPGGSLRLTCAASGFTFSTSAMTWVRQAPGKGLDWVSGIDSGGTTVYADSVKGRFTISKDNAKNTLYLQMNSLKTEDTAVYYCATGLPWGNTWRTRGQGTQVTVSS | binds
mIL23R VHH7 (VHH) VHH: QVQLQESGGGLVQPGGSLRLSCAASGFTFSRSAMTWVRQAPGKGLDWVSGIDSGGTTVYADSVKGRFTISRDSAKNTLYLQMNSLKTEDTAVYYCAIGLPWGNTWRTRGQGTQVTVSS | binds
mIL23R VHH39 (VHH) VHH: QVQLQESGGGLVQPGGSLRLSCAASGFTFSRSAMTWVRQAPGKGLDWVSGIDSGGTTVYADSVKGRFTISRDSAKNTLYLQMNGLKTEDTAVYYCAIGLPWGNTWRTRGQGTQVTVSS | binds

Further lines, results first:

binding result | Binder
binds | mIL23R VHH43 (VHH) VHH: QVQLQESGGGSVQAGGSLRLSCAASGYTFCMAWFRQAPGKEREGVARFYTRDGYTYYSDSVKGRFTISQDNAKNTLYLQMNSLKSEDTAMYYCAADLTRCSSNKNDFRYWGQGTQVTVSS
binds | mIL23R VHH6 (VHH) VHH: QVQLQESGGGSVQAGGSLRLSCAASGYTSGNYWMGWFRQAPGKEREGVATLWTGGASTFYGDSVKGRFTISRDNFKNTLYLQMNSLKVEDTAMYYCAADPALRLGANILRPAEYKYWGQGTQVTVSS

Molecular target: T2, extracellular domain of human IL23R …
Experiment: as above

Binder | binding result
hIL23R VHH13 (VHH) VHH: QVQLQESGGGSVQAGGSLRLSCAASGYTYCSYDMKWYRQAPGKKREFVSAIDSDGSTSYADSVKGRFTISQDNAKNTVYLQMNSLKPEDTAMYYCKTEGTIPVGVCPNYWGQGTQVTVSS | binds
hIL23R VHH1 (VHH) VHH: QVQLQESGGGSVQAGGSLRLSCAASGYTYCSYDMSWYRQAPGKKREFVSAFNSDGTTSYADSVKGRFTISQDKAKNTVYLQMNSLKPEDTAMYYCKTDPHVQSSGGYCPPYWGQGTQVTVSS | binds
hIL23R VHH10 (VHH) VHH: QVQLQESGGGSVQAGGSLKLSCAASGYTYCNYDIAWYRQAPGKERKFVSAIASDGSTSYADSVKGRFTISQDNAKNTVYLQMNSLKPEDTAMYYCKTDPIATMTRRCDPYWGQGTQVTVSS | binds

More lines, now with the values ahead:

binding result | Binder
binds | hIL23R VHH12 (VHH) VHH: QVQLQESGGGSVQAGGSLRLSCAASGYTSSSRCMGWFRQAPGKEREGVARIYTPTRTTWYADSVKGRFTISQDNAKNTVYLEMASLKPEDTAKYFCAAGASCAVDLFSYWGQGTQVTVSS
binds | hIL23R VHH2 (VHH) VHH: QVQLQESGGGSVQAGGSLRLSCAASGYTYCSYDMSWYRQAPGKKREFVSSFNSDGSTSYADSVKGRFTISQDNAKNTVYLQMNSLKPEDTAMYYCKTDPHADWGAPCGGDYWGQGTQVTVSS
binds | hIL23R VHH17 (VHH) VHH: QVQLQESGGGSVQAGGSLRLSCTASGYTFSTMKYMGWFRQAPGKEREGVAAIWIAAGNTYYADSVKGRFTISQDNTKNTVYLQMNSLKPEDTALYYCAAARYGFVPSTWYLPERYNYWGQGTQVTVSS
binds | hIL23R VHH8 (VHH) VHH: QVQLQESGGDSVQAGGSLRLSCAASGYTYCSYDMKWYRQAPGKEREFVSGIDSDGSISYADSVKGRFTISQDNAKNTVYLQMNSLKPEDTAMYYCKTEGTIPVGACPNYWGQGTQVTVSS
binds | hIL23R VHH14 (VHH) VHH: QVQLQESGGGLVQPGGSLRLSCAASGYTYCSYDMKWYRQAPGKKREFVSAIDSDGSTSYADSVKGRFTISQDNAKNTVYLQMNSLKPEDTAMYYCKTEGTVPVGVCPNYWGQGTQVTVSS
binds | hIL23R VHH15 (VHH) VHH: QVQLQESGGGSVQAGGSLRLSCAASPGTYTSRYMGWFRQAPGKEREGVATIWPAGGNTVYADSVKGRFTISQDGAKKTVYLQMNSLKPEDTAMYYCAAAKYGGTSLAPYTYNYWGQGTQVTVSS
binds | hIL23R VHH19 (VHH) VHH: QVQLQESGGGSVQAGGSLRLSCAASGYTSCSYDMSWYRQAPGKKREFVSAIHSDGTTSYADSMKGRFTISQDNAKNTVYLQMNSLKPEDTAMYYCKTDPNYSDHVCPPYWGRGTQVTVSS
binds | hIL23R VHH5 (VHH) VHH: QVQLQESGGGSVQAGGSLRLSCAASGYTYCSYDMSWYRQAPGKKREFVSAIASDGSTSYADSLKGRFTISQDNAKNTVYLQMNSLKPEDTAMYYCKTDPHVQSSGGYCPPYWGQGTQVTVSS
binds | hIL23R VHH18 (VHH) VHH: QVQLQESGGGSVQAGGSLRLACAASGYTYCNYDIAWYRQAPGKERKFVSAIASDGSTSYADSVKGRFTISQDNAKNTVYLQMNSLKPEDTAMYYCKTDPIATMTRRCDPYWGQGTQVTVSS
binds | hIL23R VHH11 (VHH) VHH: QVQLQESGGGSVQAGGSLRLSCAASGYTYCSYDMTWYRQAPGKKREFVSAIDSDGSTSYADSVKGRFTISQDNAKNTVYLQMNSLKPEDTAMYYCKTDPIATISRRCDSYWGQGTQVTVSS
binds | hIL23R VHH16 (VHH) VHH: QVQLQESGGGSVEAGGALTLSCVASGYTYCNYDIAWYRQAPGKERKFVSAIASDGSTSYADSVKGRFTISQDNAKNTVYLQMNSLKPEDTAMYYCKTDPIATMTRRCDPYWGQGTQVTVSS
binds | hIL23R VHH7 (VHH) VHH: QVQLQESGGGSVQAGGSLRLSCAASGYTYCNYDIAWYRQAPGKERKFVSAIASDGITSYADSVKGRFTISQDNAKNTVYLQMNSLKPEDTAMYYCKTDPISTITRICDPYWGQGTQVTVSS
